# Publication PMC6850173 (Molecular Microbiology, 2019)
# Tests used:
# crystal structure = biological target: the molecule itself; experiment: crystal structure
# [1] = substrate: Cc1cc2nc3c(=O)[nH]c(=O)nc-3n(C[C@H](O)[C@H](O)[C@H](O)COP(=O)(O)OP(=O)(O)OC[C@H]3O[C@@H](n4cnc5c(N)ncnc54)[C@H](O)[C@@H]3O)c2cc1C; experiment: HPLC of MTA-CoA formation, initial rates, nonlinear fit; assay type: biochemical, Roseovarius nubinhibens; conditions: MMPA-CoA as substrate, pH 9.0, 40°C, varied: cofactor
# [2] = substrate: CSCCC(=O)SCCNC(=O)CCNC(=O)[C@H](O)C(C)(C)COP(=O)(O)OP(=O)(O)OC[C@H]1O[C@@H](n2cnc3c(N)ncnc32)[C@H](O)[C@@H]1OP(=O)(O)O; experiment: as above; assay type: biochemical, Roseovarius nubinhibens; conditions: FAD, pH 9.0, 40°C
protein,measurement,setting,value
"DmdB Lys523Ala mutant (Ruegeria lacuscaerulensis ITI_1157) (enzyme, UniProt P0DX84 1-539, looked up) MLGQMMTQPLLISSLIDHAARYHGQTEIVSVETDGTVTRTNWGEIAANARRMGSALTKLGLQPQDRIGTLAWNNRRHLEIYYAASGAGFVCHTINPRLFPEQLVYIINHAQDRVLFFDATFLPLVAAIRDQLTEVKHFVLMGPRNEDALQQIPGLEFYDELIETGDTDFEWPVFDENTASSLCYTSGTTGHPKGVLYSHRSTVLHSFASNTRDVIGYSAMDVVMPVVPMFHVNAWGSPYGCAMSGAQMVLPGPDLHGEALVNLIDTYGVTLAMGVPTIWQGLLAHAAKCGTKLESLERTVIGGAACPPSMIATFREKYGVDTVHAWGMSEMSPLGTANIPLAKHRKLPIEEQHKLRENQGRPPFGVELKIVDDDGNDLPHDGVTQGDLMVRGHWVLDSYFQLKDQELLQDGWFATGDVATLDPDGYMTIRDRSKDIIKSGGEWISSVELENIAVAHPKLATAAVIGVPHPKWDERPLLVAVKAEGEDPSEAELLEFFDGKIAKWQVPDKVVFVDALPLNATGAVLKRKLRDEFKDALTG",binding result,crystal structure,binds
DmdC (ISM) (Roseovarius nubinhibens ISM; T170A) (protein) MTRYTAPTQDIQYLLHDVLDVANDPTPGYAELEPDFTSAVLEEAGKIAGEVLHPLNAVGDQEGCVLENGVVRPPKGFKEAFDQVREGGWTALDLPEQYGGQNMPYLLGTAVGEMFSGANQAFTMYQGLTHGAASAILVHGTDQQKDTYLPKMFSCDWTGTMNLTEPHCGADLGLMRSKAVPQDDGSYAISGQKIFISAGEHDMAENIIHLVLAKIPGGPEGIKGVSLFIVPKFLVKEDGSLGERNGVKCSKIEEKMGIHGNSTCVMDYDGAKGWLLGEEHKGMRAMFTMMNEARIGVGMQGLAQAEVAYQNALDYARDRLQGRSVTGVENPDGPADPLIVHPDIRRNLLDQKSFIEGARAFLLWGAQMIDRAERGKDEAAHGMVSLLTPVIKGFLTDEGYDMTVQAQQVYGGHGYIEETGMSQFTRDARIAMIYEGANGVQALDLVGRKLAQDGGKHVMAFFDLVKGFIKEAGTDGAMAEFTEPLKSASKDLQSAGMFFMQNGMKNPNAALAGSYDFMHLFGHVCLGLMWGRMAEASLKALAEGRGDANFHETKLATARFYMTRRLPATKLHLARIESGADPVMALDADRF,Km,[1],0.1125 ± 0.0045 mM
DmdC (ISM) (Roseovarius nubinhibens ISM; R284A) (protein) MTRYTAPTQDIQYLLHDVLDVANDPTPGYAELEPDFTSAVLEEAGKIAGEVLHPLNAVGDQEGCVLENGVVRPPKGFKEAFDQVREGGWTALDLPEQYGGQNMPYLLGTAVGEMFSGANQAFTMYQGLTHGAASAILVHGTDQQKDTYLPKMFSCDWTGTMNLTEPHCGTDLGLMRSKAVPQDDGSYAISGQKIFISAGEHDMAENIIHLVLAKIPGGPEGIKGVSLFIVPKFLVKEDGSLGERNGVKCSKIEEKMGIHGNSTCVMDYDGAKGWLLGEEHKGMAAMFTMMNEARIGVGMQGLAQAEVAYQNALDYARDRLQGRSVTGVENPDGPADPLIVHPDIRRNLLDQKSFIEGARAFLLWGAQMIDRAERGKDEAAHGMVSLLTPVIKGFLTDEGYDMTVQAQQVYGGHGYIEETGMSQFTRDARIAMIYEGANGVQALDLVGRKLAQDGGKHVMAFFDLVKGFIKEAGTDGAMAEFTEPLKSASKDLQSAGMFFMQNGMKNPNAALAGSYDFMHLFGHVCLGLMWGRMAEASLKALAEGRGDANFHETKLATARFYMTRRLPATKLHLARIESGADPVMALDADRF,Km,[2],12.4 ± 1.0 mM
